Laboratory results reported in US20250263482A1.

Biological target: human CLDN18.2 expressed on cells (human)
Assay: cell-based or functional assay

Substance: Human IgG1 isotype antibody
- ADCC on KATOIII CLDN18.2 cells, LDH: max (% cytotoxity), run A: 0.3%
- ADCC on KATOIII CLDN18.2 cells, LDH: max (% cytotoxity), run B: -5.51%
- ADCC on KATOIII CLDN18.2 cells, LDH: max (% cytotoxity), run C: -7.64%
- ADCC on NCI-N87 CLDN18.2 cells, LDH: max (% cytotoxity), run A: -6.73%
- ADCC on NCI-N87 CLDN18.2 cells, LDH: max (% cytotoxity), run B: -11.7%
- ADCC on NCI-N87 CLDN18.2 cells, LDH: max (% cytotoxity), run C: -9.22%
- CDC on CT26 CLDN18.2 cells, LDH: max (% cytotoxity), run A: 10.8%
- CDC on CT26 CLDN18.2 cells, LDH: max (% cytotoxity), run B: -0.23%
- CDC on CT26 CLDN18.2 cells, LDH: max (% cytotoxity), run C: -0.38%
- CDC on KATOIII CLDN18.2 cells, LDH: max (% cytotoxity), run A: -0.85%
- CDC on KATOIII CLDN18.2 cells, LDH: max (% cytotoxity), run B: -2.46%
- CDC on KATOIII CLDN18.2 cells, LDH: max (% cytotoxity), run C: -1.53%
